These results are taken from publication PMC12102759 (2025).

B1: CBL peptide 540-555 (E3 ubiquitin-protein ligase CBL), 16-mer library wild type / YES SH3 (YES1 SH3 domain, residues 90-152) (parent complex)
chain 1: RDLPPPPPPDRPYSVG
chain 2: not shown

The experiment covers variants of B1. In words: proteomic peptide phage display deep mutational scan (ProP-PD DMS): M13 P8 16-mer library selected against immobilised GST-tagged bait for four days (rounds), NGS of the eluted pools per day and pseudo-replica; bait immobilised on MaxiSorp plates (10 µg), library pre-cleared on GST, 2 h binding at 4 °C, five washes; one round per day, days 1-4; value from days 2 and 3.
Consider chain 1 V15P, for which the screen value was 0.00539 average fractional NGS count over selection days 2 and 3 (reads of this peptide / all reads for the bait, averaged over ….

With chain 1 V15Y, the screen value is 0.00192 average fractional NGS count over selection days 2 and 3 (reads of this peptide / all reads for the bait, averaged over ….

As to chain 1 V15R, the screen value was 7.8e-05 average fractional NGS count over selection days 2 and 3 (reads of this peptide / all reads for the bait, averaged over ….

For the variant chain 1 V15F, the screen value was 0.00636 average fractional NGS count over selection days 2 and 3 (reads of this peptide / all reads for the bait, averaged over ….

chain 1 D10S: the screen value is 0.000232 average fractional NGS count over selection days 2 and 3 (reads of this peptide / all reads for the bait, averaged over ….

Regarding chain 1 D10G, the screen value is 0.00202 average fractional NGS count over selection days 2 and 3 (reads of this peptide / all reads for the bait, averaged over ….

Consider chain 1 D10T, for which the screen value is 0.00033 average fractional NGS count over selection days 2 and 3 (reads of this peptide / all reads for the bait, averaged over ….

Turning to chain 1 D10Q, the screen value is 0.000233 average fractional NGS count over selection days 2 and 3 (reads of this peptide / all reads for the bait, averaged over ….

Take chain 1 D10L: the screen value was 0.00104 average fractional NGS count over selection days 2 and 3 (reads of this peptide / all reads for the bait, averaged over ….

For chain 1 L3G, the screen value was 7.18e-05 average fractional NGS count over selection days 2 and 3 (reads of this peptide / all reads for the bait, averaged over ….

Consider chain 1 L3N, for which the screen value is 7.55e-05 average fractional NGS count over selection days 2 and 3 (reads of this peptide / all reads for the bait, averaged over ….

Take chain 1 L3I: the screen value is 0.00353 average fractional NGS count over selection days 2 and 3 (reads of this peptide / all reads for the bait, averaged over ….

As to chain 1 P5Y, the screen value is 0.000822 average fractional NGS count over selection days 2 and 3 (reads of this peptide / all reads for the bait, averaged over ….

For chain 1 P5N, the screen value is 0.00347 average fractional NGS count over selection days 2 and 3 (reads of this peptide / all reads for the bait, averaged over ….

chain 1 P5D: the screen value was 0.00109 average fractional NGS count over selection days 2 and 3 (reads of this peptide / all reads for the bait, averaged over ….

Consider chain 1 P5G, for which the screen value is 0.00951 average fractional NGS count over selection days 2 and 3 (reads of this peptide / all reads for the bait, averaged over ….

Consider chain 1 P5T, for which the screen value was 0.00773 average fractional NGS count over selection days 2 and 3 (reads of this peptide / all reads for the bait, averaged over ….

As for chain 1 P5V, the screen value was 0.0116 average fractional NGS count over selection days 2 and 3 (reads of this peptide / all reads for the bait, averaged over ….

On to chain 1 P4A, for which the screen value was 0.000327 average fractional NGS count over selection days 2 and 3 (reads of this peptide / all reads for the bait, averaged over ….

chain 1 P4I: the screen value is 0.000839 average fractional NGS count over selection days 2 and 3 (reads of this peptide / all reads for the bait, averaged over ….

For chain 1 P4F, the screen value is 9.76e-05 average fractional NGS count over selection days 2 and 3 (reads of this peptide / all reads for the bait, averaged over ….

chain 1 P4T: the screen value is 0.00019 average fractional NGS count over selection days 2 and 3 (reads of this peptide / all reads for the bait, averaged over ….

For the variant chain 1 P6R, the screen value was 0.00111 average fractional NGS count over selection days 2 and 3 (reads of this peptide / all reads for the bait, averaged over ….

Take chain 1 P6L: the screen value was 0.000189 average fractional NGS count over selection days 2 and 3 (reads of this peptide / all reads for the bait, averaged over ….

On to chain 1 R1N, for which the screen value was 0.00136 average fractional NGS count over selection days 2 and 3 (reads of this peptide / all reads for the bait, averaged over ….

Turning to chain 1 R1I, the screen value was 0.00103 average fractional NGS count over selection days 2 and 3 (reads of this peptide / all reads for the bait, averaged over ….

In the case of chain 1 P9E, the screen value was 0.000429 average fractional NGS count over selection days 2 and 3 (reads of this peptide / all reads for the bait, averaged over ….

Consider chain 1 P9T, for which the screen value was 0.000876 average fractional NGS count over selection days 2 and 3 (reads of this peptide / all reads for the bait, averaged over ….

Consider chain 1 P9I, for which the screen value is 0.000523 average fractional NGS count over selection days 2 and 3 (reads of this peptide / all reads for the bait, averaged over ….

For chain 1 P9G, the screen value was 0.00146 average fractional NGS count over selection days 2 and 3 (reads of this peptide / all reads for the bait, averaged over ….

On to chain 1 P9K, for which the screen value was 0.00297 average fractional NGS count over selection days 2 and 3 (reads of this peptide / all reads for the bait, averaged over ….

On to chain 1 P9F, for which the screen value is 0.000295 average fractional NGS count over selection days 2 and 3 (reads of this peptide / all reads for the bait, averaged over ….

In the case of chain 1 P9V, the screen value is 0.00298 average fractional NGS count over selection days 2 and 3 (reads of this peptide / all reads for the bait, averaged over ….

Consider chain 1 Y13I, for which the screen value is 0.00384 average fractional NGS count over selection days 2 and 3 (reads of this peptide / all reads for the bait, averaged over ….

For the variant chain 1 Y13N, the screen value was 0.00025 average fractional NGS count over selection days 2 and 3 (reads of this peptide / all reads for the bait, averaged over ….

Take chain 1 Y13H: the screen value was 0.000183 average fractional NGS count over selection days 2 and 3 (reads of this peptide / all reads for the bait, averaged over ….

On to chain 1 Y13K, for which the screen value is 0.000696 average fractional NGS count over selection days 2 and 3 (reads of this peptide / all reads for the bait, averaged over ….

chain 1 Y13S: the screen value was 0.00123 average fractional NGS count over selection days 2 and 3 (reads of this peptide / all reads for the bait, averaged over ….

On to chain 1 Y13Q, for which the screen value is 0.00091 average fractional NGS count over selection days 2 and 3 (reads of this peptide / all reads for the bait, averaged over ….

Turning to chain 1 P7V, the screen value was 0.00515 average fractional NGS count over selection days 2 and 3 (reads of this peptide / all reads for the bait, averaged over ….

As for chain 1 P7D, the screen value is 0.00038 average fractional NGS count over selection days 2 and 3 (reads of this peptide / all reads for the bait, averaged over ….

chain 1 P7K: the screen value is 0.000178 average fractional NGS count over selection days 2 and 3 (reads of this peptide / all reads for the bait, averaged over ….

As to chain 1 P7L, the screen value was 0.00235 average fractional NGS count over selection days 2 and 3 (reads of this peptide / all reads for the bait, averaged over ….

With chain 1 D2N, the screen value is 0.00453 average fractional NGS count over selection days 2 and 3 (reads of this peptide / all reads for the bait, averaged over ….

On to chain 1 D2R, for which the screen value was 0.000105 average fractional NGS count over selection days 2 and 3 (reads of this peptide / all reads for the bait, averaged over ….

In the case of chain 1 D2F, the screen value is 0.000357 average fractional NGS count over selection days 2 and 3 (reads of this peptide / all reads for the bait, averaged over ….

As to chain 1 D2Y, the screen value is 0.00341 average fractional NGS count over selection days 2 and 3 (reads of this peptide / all reads for the bait, averaged over ….

Turning to chain 1 D2P, the screen value was 0.00891 average fractional NGS count over selection days 2 and 3 (reads of this peptide / all reads for the bait, averaged over ….

In the case of chain 1 D2G, the screen value was 0.00344 average fractional NGS count over selection days 2 and 3 (reads of this peptide / all reads for the bait, averaged over ….

chain 1 D2V: the screen value was 0.00212 average fractional NGS count over selection days 2 and 3 (reads of this peptide / all reads for the bait, averaged over ….

In the case of chain 1 D2M, the screen value was 0.0201 average fractional NGS count over selection days 2 and 3 (reads of this peptide / all reads for the bait, averaged over ….

For chain 1 D2A, the screen value was 0.00577 average fractional NGS count over selection days 2 and 3 (reads of this peptide / all reads for the bait, averaged over ….

Take chain 1 D2K: the screen value is 0.000177 average fractional NGS count over selection days 2 and 3 (reads of this peptide / all reads for the bait, averaged over ….

For the variant chain 1 D2S, the screen value was 0.00111 average fractional NGS count over selection days 2 and 3 (reads of this peptide / all reads for the bait, averaged over ….

With chain 1 R11Y, the screen value is 0.000176 average fractional NGS count over selection days 2 and 3 (reads of this peptide / all reads for the bait, averaged over ….

chain 1 R11E: the screen value is 0.000556 average fractional NGS count over selection days 2 and 3 (reads of this peptide / all reads for the bait, averaged over ….

As to chain 1 R11Q, the screen value was 0.00199 average fractional NGS count over selection days 2 and 3 (reads of this peptide / all reads for the bait, averaged over ….

As for chain 1 S14L, the screen value is 0.0182 average fractional NGS count over selection days 2 and 3 (reads of this peptide / all reads for the bait, averaged over ….

Consider chain 1 S14P, for which the screen value was 0.00266 average fractional NGS count over selection days 2 and 3 (reads of this peptide / all reads for the bait, averaged over ….

For the variant chain 1 S14G, the screen value was 0.00254 average fractional NGS count over selection days 2 and 3 (reads of this peptide / all reads for the bait, averaged over ….

Take chain 1 S14V: the screen value is 7.3e-05 average fractional NGS count over selection days 2 and 3 (reads of this peptide / all reads for the bait, averaged over ….

Take chain 1 S14E: the screen value is 0.0212 average fractional NGS count over selection days 2 and 3 (reads of this peptide / all reads for the bait, averaged over ….

With chain 1 S14Q, the screen value is 0.000166 average fractional NGS count over selection days 2 and 3 (reads of this peptide / all reads for the bait, averaged over ….

Take chain 1 P12K: the screen value was 0.00165 average fractional NGS count over selection days 2 and 3 (reads of this peptide / all reads for the bait, averaged over ….

As to chain 1 P12M, the screen value is 0.0175 average fractional NGS count over selection days 2 and 3 (reads of this peptide / all reads for the bait, averaged over ….

Consider chain 1 P12Y, for which the screen value is 0.000171 average fractional NGS count over selection days 2 and 3 (reads of this peptide / all reads for the bait, averaged over ….

On to chain 1 P12L, for which the screen value is 0.0025 average fractional NGS count over selection days 2 and 3 (reads of this peptide / all reads for the bait, averaged over ….

With chain 1 P12V, the screen value was 0.002 average fractional NGS count over selection days 2 and 3 (reads of this peptide / all reads for the bait, averaged over ….

As for chain 1 P12G, the screen value was 0.000184 average fractional NGS count over selection days 2 and 3 (reads of this peptide / all reads for the bait, averaged over ….

As to chain 1 P12N, the screen value was 0.000558 average fractional NGS count over selection days 2 and 3 (reads of this peptide / all reads for the bait, averaged over ….

Take chain 1 P12W: the screen value is 0.00363 average fractional NGS count over selection days 2 and 3 (reads of this peptide / all reads for the bait, averaged over ….

Take chain 1 P12F: the screen value was 0.00458 average fractional NGS count over selection days 2 and 3 (reads of this peptide / all reads for the bait, averaged over ….

As to chain 1 P8G, the screen value was 0.000141 average fractional NGS count over selection days 2 and 3 (reads of this peptide / all reads for the bait, averaged over ….

For the variant chain 1 P8D, the screen value was 0.000795 average fractional NGS count over selection days 2 and 3 (reads of this peptide / all reads for the bait, averaged over ….

On to chain 1 P8A, for which the screen value was 0.00106 average fractional NGS count over selection days 2 and 3 (reads of this peptide / all reads for the bait, averaged over ….
